Data from IntAct's records for PubMed 15448699.

B1: Protein SIC1 (Saccharomyces cerevisiae), P38634 (parent)
chain: MTPSTPPRSRGTRYLAQPSGNTSSSALMQGQKTPQKPSQNLVPVTPSTTKSFKNAPLLAPPNSNMGMTSPFNGLTSPQRSPFPKSSVKRTLFQFESHDNGTVREEQEPLGRVNRILFPTQQNVDIDAAEEEEEGEVLLPPSRPTSARQLHLSLERDEFDQTHRKKIIKDVPGTPSDKVITFELAKNWNNNSPKNDARSQESEDEEDIIINPVRVGKNPFASDELVTQEIRNERKRAMLRENPDIEDVITYVNKKGEVVEKRRLTDEEKRRFKPKALFQSRDQEH
partner: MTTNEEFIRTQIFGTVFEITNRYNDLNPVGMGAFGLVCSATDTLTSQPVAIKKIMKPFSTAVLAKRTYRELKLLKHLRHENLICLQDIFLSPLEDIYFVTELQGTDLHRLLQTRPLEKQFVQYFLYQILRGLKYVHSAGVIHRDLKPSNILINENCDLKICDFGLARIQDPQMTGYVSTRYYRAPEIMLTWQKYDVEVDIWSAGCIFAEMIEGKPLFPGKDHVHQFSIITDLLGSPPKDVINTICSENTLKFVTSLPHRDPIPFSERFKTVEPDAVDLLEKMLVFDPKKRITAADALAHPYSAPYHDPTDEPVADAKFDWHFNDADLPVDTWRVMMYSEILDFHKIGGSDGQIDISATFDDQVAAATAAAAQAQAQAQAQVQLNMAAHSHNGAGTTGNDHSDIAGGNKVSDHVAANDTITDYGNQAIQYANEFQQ
B2: Protein SIC1 (Saccharomyces cerevisiae), P38634 (parent)
chain: B1 chain
partner: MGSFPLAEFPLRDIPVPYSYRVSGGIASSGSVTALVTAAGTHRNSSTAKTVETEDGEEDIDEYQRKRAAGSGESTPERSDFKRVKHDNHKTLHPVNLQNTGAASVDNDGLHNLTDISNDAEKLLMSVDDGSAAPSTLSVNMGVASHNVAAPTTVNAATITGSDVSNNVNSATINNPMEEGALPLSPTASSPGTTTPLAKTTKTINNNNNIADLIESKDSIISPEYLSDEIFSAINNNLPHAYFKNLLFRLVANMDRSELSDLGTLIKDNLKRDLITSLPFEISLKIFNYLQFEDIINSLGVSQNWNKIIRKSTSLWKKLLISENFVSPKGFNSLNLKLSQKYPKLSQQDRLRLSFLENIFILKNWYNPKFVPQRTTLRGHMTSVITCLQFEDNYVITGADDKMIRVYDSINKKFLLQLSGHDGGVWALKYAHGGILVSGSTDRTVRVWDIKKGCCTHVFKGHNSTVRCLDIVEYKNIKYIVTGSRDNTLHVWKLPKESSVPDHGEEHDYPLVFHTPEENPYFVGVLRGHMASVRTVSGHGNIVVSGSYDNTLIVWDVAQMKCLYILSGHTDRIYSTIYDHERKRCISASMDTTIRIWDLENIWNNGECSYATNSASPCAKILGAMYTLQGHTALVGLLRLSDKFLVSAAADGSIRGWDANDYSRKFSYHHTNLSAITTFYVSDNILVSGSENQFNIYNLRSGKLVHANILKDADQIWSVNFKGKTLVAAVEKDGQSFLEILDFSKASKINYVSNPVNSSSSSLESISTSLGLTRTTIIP

Variants of: B1
Settings: with hog1_yeast HOG1, P32485

Row | Variant | effect of a mutation on the interaction
1 | MTPSTPPRSRGTRYLAQPSGNTSSSALMQGQKTPQKPSQNLVPVTPSTTKSFKNAPLLAPPNSNMGMTSPFNGLTSPQRSPFPKSSVKRTLFQFESHDNGTVREEQEPLGRVNRILFPTQQNVDIDAAEEEEEGEVLLPPSRPTSARQLHLSLERDEFDQTHRKKIIKDVPGEPSDKVITFELAKNWNNNSPKNDARSQESEDEEDIIINPVRVGKNPFASDELVTQEIRNERKRAMLRENPDIEDVITYVNKKGEVVEKRRLTDEEKRRFKPKALFQSRDQEH [T173E] | disrupting interaction

Variants of: B2
Settings: with cdc4_yeast CDC4, P07834

Row | Variant | effect of a mutation on the interaction
2 | MTPSTPPRSRGTRYLAQPSGNTSSSALMQGQKTPQKPSQNLVPVTPSTTKSFKNAPLLAPPNSNMGMTSPFNGLTSPQRSPFPKSSVKRTLFQFESHDNGTVREEQEPLGRVNRILFPTQQNVDIDAAEEEEEGEVLLPPSRPTSARQLHLSLERDEFDQTHRKKIIKDVPGEPSDKVITFELAKNWNNNSPKNDARSQESEDEEDIIINPVRVGKNPFASDELVTQEIRNERKRAMLRENPDIEDVITYVNKKGEVVEKRRLTDEEKRRFKPKALFQSRDQEH [T173E] | decreasing interaction
